Experiment [1] addresses T1, anti-CD19 CAR (SEQ ID NO: 8) on CAR T cells.
T1 construct: also called anti-CD19 CAR T cells
Briefly: flow cytometry, % CAR positive cells against antibody dilution on anti-CD19 CAR T cells. How it is done: (§1) The purified 15C04-02F03 antibody was analyzed by flow cytometry for binding to CAR T cells expressing the anti-BCMA CAR of SEQ ID NO: 6 (anti-BCMA CAR T cells). CAR T cells expressing an anti-CD70 CAR of SEQ ID NO: 7 (anti-CD70 CAR T cells) or an anti-CD19 CAR SEQ ID NO: 8 (anti-CD19 CAR T cells) were used as negative controls. Anti-BCMA-scFv antibody (15C04-02F03) was analyzed at various dilutions (FIG. 2).
(In flow cytometry, cells or beads pass a laser one at a time.)

For experiment [2], the target named is T2, anti-CD70 CAR (SEQ ID NO: 7) on CAR T cells.
T2 construct: also called anti-CD70 CAR T cells
T2 sequence (chain, as listed by the source limits assumed): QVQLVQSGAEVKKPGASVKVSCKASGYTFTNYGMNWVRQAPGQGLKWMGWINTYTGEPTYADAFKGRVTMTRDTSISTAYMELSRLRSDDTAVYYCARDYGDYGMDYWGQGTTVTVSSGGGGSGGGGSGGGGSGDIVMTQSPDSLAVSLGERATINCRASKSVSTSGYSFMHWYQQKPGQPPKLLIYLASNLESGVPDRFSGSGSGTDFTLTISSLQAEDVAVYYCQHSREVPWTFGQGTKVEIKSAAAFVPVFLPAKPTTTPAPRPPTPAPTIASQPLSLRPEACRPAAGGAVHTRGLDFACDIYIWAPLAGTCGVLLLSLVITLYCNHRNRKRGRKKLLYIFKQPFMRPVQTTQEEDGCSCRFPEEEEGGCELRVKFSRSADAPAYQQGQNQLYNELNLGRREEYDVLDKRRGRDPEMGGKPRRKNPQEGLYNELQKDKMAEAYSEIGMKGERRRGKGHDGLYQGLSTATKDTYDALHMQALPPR
Briefly: flow cytometry, % CAR positive cells against antibody dilution on anti-CD70 CAR T cells. How it is done: as §1

B1: mouse anti-BCMA-scFv monoclonal antibody 15C04-02F03 (antibody, mouse IgG1, kappa, V domains shown)
VH: QVQLQQPGAELVKPGTSVKLSCKASAYTFTNYWIHWVKQRPGQGLEWIGRIDPNSGDTKYNEKFKSKASLTVDKPSSTANMQLSSLTSEDSAVYYCTRWGDLHYYAMDYWGQGTSVTVSS
VL: DIVLTQSPASLAVSLGQRATISCQASESVSFTGTSLMHWYQQKPGQPPKLLIYRASNLDSGVPARFSGSGSESDFTLTIDPVEEDDAAVYYCMQSMEDPYTFGGGTKLEIKR
notes: also called Native 15C04-02F03; anti-BCMA-scFv-AJ-1.3-15C04-02F03
As to B1, the binding result in experiment [1] and in experiment [2] was “no binding” each time.

The record behind these values is patent US20220064335A1 (CRISPR THERAPEUTICS, published 2022).
